Measurements as given in the supplement of paper PMC6755084.

B1: minF1; a variant is named by its letters at N, in order (parent)
chain: GAGACCGCAACTGAAAAGTTGTTNNNNAANNNNNGGNTNAATTTCTGCACGTAGAAGCAAAAGGC

Variants of: B1
Experiment: fraction ligated after 30 min (ligated reads / total reads); higher = more ligase activity
Settings: with F1*subA RNA substrate (template-directed ligation), 42 °C
How it was run: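 RNAs for minimized ligase ribozyme variants were transcribed with T7 from PCR-amplified oligo-pool templates and purified on gels. Ligated and unligated species were resolved on gels, converted to cDNA with barcoded primers, and read on a MiSeq with core bases filtered at quality ≥30. Fraction ligated per variant is the ratio of ligated reads to total reads.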

Variant | fraction ligated
GAGACCGCAACTGAAAAGTTGTTATGAAATGGAGGGTTGAATTTCTGCACGTAGAAGCAAAAGGC [ATGATGGAGTG] | 0.00146
GAGACCGCAACTGAAAAGTTGTTTCAGAAATGGATGGTTGATTTCTGCACGTAGAAGCAAAAGGC [TCAGATGGAGT G35T A40G] | 0.0226
GAGACCGCAACTGAAAAGTTGTTACAGAAATGGGGGTTGAATTTCTGCACGTAGAAGCAAAAGGC [ACAGATGGGTG] | 0.00695
GAGACCGCAACTGAAAAGTTGTATCAAATGGATGGGTTGAATTTCTGCACGTAGAAGCAAAAGGC [TCAAGGATGTG T23A A29T] | 0.00621
GAGACCGCAACTGAAAAGTTGTTACAGAAATGATGGTTGAATTTCTGCACGTAGAAGCAAAAGGC [ACAGATGATTG] | 0.00209
GAGACCGCAACTGAAAAGTTGTTTCGAAAGGATGGGTTGAATTTCTGCACGTAGAAGCAAAAGGC [TCGAGGATGTG] | 0.00582
GAGACCGCAACTGAAAAGTTGTTATCAAAAGGAGGGTTGAATTTCTGCACGTAGAAGCAAAAGGC [ATCAAGGAGTG] | 0.00266
GAGACCGCAACTGAAAAGTTGTATCAGAAATGGATGGGTTATTTCTGCACGTAGAAGCAAAAGGC [TCAGATGGAGT T23A G35T T38G A40T] | 0.00248
GAGACCGCAACTGAAAAGTTGTATCGAATGGATGGGTTGAATTTCTGCACGTAGAAGCAAAAGGC [TCGAGGATGTG T23A A29T] | 0.013
GAGACCGCAACTGAAAAGTTGTACAGAAATGGATGGGTTGATTTCTGCACGTAGAAGCAAAAGGC [CAGATGGATGT T23A A40G] | 0.0214
GAGACCGCAACTGAAAAGTTGTTATCAGAAAGGATGGGTTGTTTCTGCACGTAGAAGCAAAAGGC [ATCAAAGGAGT A28G G35T T38G A40T A41G] | 0.00104
GAGACCGCAACTGAAAAGTTGTTATCAAAATGAGGGTTGAATTTCTGCACGTAGAAGCAAAAGGC [ATCAATGAGTG] | 0.003
GAGACCGCAACTGAAAAGTTGTTACAGAAAGATGGGTTGAATTTCTGCACGTAGAAGCAAAAGGC [ACAGAGATGTG] | 0.0018
GAGACCGCAACTGAAAAGTTGTTATCGAATGGATGGGTTGATTTCTGCACGTAGAAGCAAAAGGC [ATCGTGGATGT A40G] | 0.0919
GAGACCGCAACTGAAAAGTTGTTACAGAAAGGTGGGTTGAATTTCTGCACGTAGAAGCAAAAGGC [ACAGAGGTGTG] | 0.00336
GAGACCGCAACTGAAAAGTTGTTACAAATGGATGGGTTGAATTTCTGCACGTAGAAGCAAAAGGC [ACAAGGATGTG A29T] | 0.00252
GAGACCGCAACTGAAAAGTTGTATCAGAAAGGATGGGTTAATTTCTGCACGTAGAAGCAAAAGGC [TCAGAGGATGT T23A] | 0.00218
GAGACCGCAACTGAAAAGTTGTTATCAGAAGATGGGTTGAATTTCTGCACGTAGAAGCAAAAGGC [ATCAAGATGTG A28G] | 0.00558
GAGACCGCAACTGAAAAGTTGTTATCAGAAAGGGGGTTGAATTTCTGCACGTAGAAGCAAAAGGC [ATCAAAGGGTG A28G] | 0.0042
GAGACCGCAACTGAAAAGTTGTTATCAGATGGAGGGTTGAATTTCTGCACGTAGAAGCAAAAGGC [ATCATGGAGTG A28G] | 0.00478
GAGACCGCAACTGAAAAGTTGTTATCAAAATGGATGGTTGATTTCTGCACGTAGAAGCAAAAGGC [ATCAATGGAGT G35T A40G] | 0.0379

Variant | fraction ligated
GAGACCGCAACTGAAAAGTTGTTATCAGAATGGAGGGTTGATTTCTGCACGTAGAAGCAAAAGGC [ATCAATGGAGT A28G A40G] | 0.00701
GAGACCGCAACTGAAAAGTTGTATCGAAATGGATGGGTTAATTTCTGCACGTAGAAGCAAAAGGC [TCGATGGATGT T23A] | 0.0123
GAGACCGCAACTGAAAAGTTGTTACAAAATGGTGGGTTGAATTTCTGCACGTAGAAGCAAAAGGC [ACAATGGTGTG] | 0.00249
GAGACCGCAACTGAAAAGTTGTATCAGAAGGATGGGTTGAATTTCTGCACGTAGAAGCAAAAGGC [TCAGGGATGTG T23A] | 0.00448
GAGACCGCAACTGAAAAGTTGTTATCAGATGGTGGGTTGAATTTCTGCACGTAGAAGCAAAAGGC [ATCATGGTGTG A28G] | 0.00296
GAGACCGCAACTGAAAAGTTGTTACGAAAGGATGGGTTGAATTTCTGCACGTAGAAGCAAAAGGC [ACGAGGATGTG] | 0.00409
GAGACCGCAACTGAAAAGTTGTATCAAAATGGATGGTTGAATTTCTGCACGTAGAAGCAAAAGGC [TCAATGGATTG T23A] | 0.0162
GAGACCGCAACTGAAAAGTTGTATCGAAATGATGGGTTGAATTTCTGCACGTAGAAGCAAAAGGC [TCGATGATGTG T23A] | 0.00559
GAGACCGCAACTGAAAAGTTGTTATCAAAATATGGGTTGAATTTCTGCACGTAGAAGCAAAAGGC [ATCAATATGTG] | 0.00461
GAGACCGCAACTGAAAAGTTGTATCAGAAAGGAGGGTTGAATTTCTGCACGTAGAAGCAAAAGGC [TCAGAGGAGTG T23A] | 0
GAGACCGCAACTGAAAAGTTGTTATCGAAATGATGGGTTAATTTCTGCACGTAGAAGCAAAAGGC [ATCGATGATGT] | 0.00439
GAGACCGCAACTGAAAAGTTGTTATCGAAAGGAGGGTTGAATTTCTGCACGTAGAAGCAAAAGGC [ATCGAGGAGTG] | 0.00378
GAGACCGCAACTGAAAAGTTGTTACAAAATGATGGGTTGAATTTCTGCACGTAGAAGCAAAAGGC [ACAATGATGTG] | 0.00381
GAGACCGCAACTGAAAAGTTGTACGAAATGGATGGGTTGAATTTCTGCACGTAGAAGCAAAAGGC [CGAAGGATGTG T23A A29T] | 0.00782
GAGACCGCAACTGAAAAGTTGTTATCAGAAATGGAGGTTGATTTCTGCACGTAGAAGCAAAAGGC [ATCAAATGGGT A28G G35A A40G] | 0.00585
GAGACCGCAACTGAAAAGTTGTTACAGAAATGGAGGGTTAATTTCTGCACGTAGAAGCAAAAGGC [ACAGATGGAGT] | 0.00252
GAGACCGCAACTGAAAAGTTGTTATAGAAGGATGGGTTGAATTTCTGCACGTAGAAGCAAAAGGC [ATAGGGATGTG] | 0.00301
GAGACCGCAACTGAAAAGTTGTATCAGAAATGGATGGGTTGTTTCTGCACGTAGAAGCAAAAGGC [TCAGATGGAGT T23A G35T T38G A40T A41G] | 0.000947
GAGACCGCAACTGAAAAGTTGTTATAAAATGGATGGGTTGATTTCTGCACGTAGAAGCAAAAGGC [ATAATGGATGT A40G] | 0.0127
GAGACCGCAACTGAAAAGTTGTTATCAAAAGGATGGTTGAATTTCTGCACGTAGAAGCAAAAGGC [ATCAAGGATTG] | 0.00347
GAGACCGCAACTGAAAAGTTGTTATCAGAATGGAGGTTGAATTTCTGCACGTAGAAGCAAAAGGC [ATCAATGGATG A28G] | 0.00279
